Results taken from IntAct's records for PubMed 19135888.

B1: Cell division control protein 13 (Saccharomyces cerevisiae), P32797 (parent)
chain: MDTLEEPECPPHKNRIFVSSSKDFEGYPSKAIVPVQFVALLTSIHLTETKCLLGFSNFERRGDQSQEDQYLIKLKFKDRGSERLARITISLLCQYFDIELPDLDSDSGASPTVILRDIHLERLCFSSCKALYVSKHGNYTLFLEDIKPLDLVSVISTISTKSTNSSKHSSSELISECDLNNSLVDIFNNLIEMNRDEKNRFKFVKLIHYDIELKKFVQDQQKVLSQKSKAAAINPFFVPNRLGIPYIESQNEFNSQLMTLNVDEPTTDISNMGEEMHDSADPIEDSDSSTTSSTGKYFSSKSYIQSQTPERKTSVPNNWHDDDSGSKRKRKLSFHSPNASSIRKAISYEQLSLASVGSVERLEGKIVGMNPPQFASINEFKYCTLKLYFTQLLPNVPDKVLVPGVNCIEIVIPTRERICELFGVLNCQSDKISDILLLEKPDRISVEVERILWDNDKTASPGMAVWSLKNISTDTQAQAQVQVPAQSSASIDPSRTRMSKMARKDPTIEFCQLGLDTFETKYITMFGMLVSCSFDKPAFISFVFSDFTKNDIVQNYLYDRYLIDYENKLELNEGFKAIMYKNQFETFDSKLRKIFNNGLRDLQNGRDENLSQYGIVCKMNIKVKMYNGKLNAIVRECEPVPHSQISSIASPSQCEHLRLFYQRAFKRIGESAISRYFEEYRRFFPIHRNGSHLAKLRFDEVKHEPKKSPTTPALAEHIPDLNADVSSFDVKFTDISSLLDSSARLPRPQQTHKSNTLYSCEGRIIAIEYHASDLCFHITNELPLLQTRGLAPERVLQLHIITSKNFAYFFNRSSAYLQRQPLEEKYTQLAQFLGHSFKFNITSSLTLFPDTTVALQIWCPIECTFRELQQQLAHPKVAAAPDSGSLDCAINATVNPLRLLAAQNGVTVKKEEDNDDDAGAVPTS

Variants of: B1
Details: with cdk1_yeast CDC28, P00546
Chain of cdk1_yeast CDC28, P00546 (P00546 whole entry, looked up): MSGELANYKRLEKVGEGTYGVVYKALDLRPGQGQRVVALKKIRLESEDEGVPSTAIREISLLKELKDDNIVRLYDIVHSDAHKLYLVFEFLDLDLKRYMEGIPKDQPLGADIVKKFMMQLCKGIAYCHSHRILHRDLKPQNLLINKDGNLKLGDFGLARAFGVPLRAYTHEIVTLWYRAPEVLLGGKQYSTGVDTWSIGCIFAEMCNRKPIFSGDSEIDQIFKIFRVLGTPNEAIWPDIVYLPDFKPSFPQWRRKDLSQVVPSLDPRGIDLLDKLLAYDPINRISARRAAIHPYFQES

| effect of a mutation on the interaction | Variant |
| --- | --- |
| decreasing interaction | T308A |
| disrupting interaction | T308A;S336A |
